Results as given in the supplement of paper PMC12042874.
± gives the uncertainty stated by the source.

Assay: amyloid nucleation score (Sup35N fusion, yeast selection) (log enrichment); library NNK3; higher = more nucleation; inactive = no reads after selection
Summary of the method: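 Output and input plasmid inserts were sequenced by Illumina after psi-negative yeast carrying Sup35N fused to peptides of 20 random codons had been induced 24 hours with 100 μM copper sulfate and grown 7 days at 30°C on medium lacking adenine and uracil. The nucleation score is the DiMSum log enrichment of output over input reads, centred on the mode score of non-aggregating sequences. Sequences with under 100 input reads were excluded.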

Substance	amyloid nucleation score
TCWRGELMELTDMLSVALLR	inactive
LQKIKCSQADYWREMTVRDR	1.01 ± 0.16
KSYFANSG	inactive
VWEFICVGVLC	2.65 ± 0.05
ERNAGLITAFYFYSPFGTMM	inactive
VYSMEPECIW	inactive
QFLLGWNPNTSDLVLTFVQQ	1.15 ± 0.14
LVWSSRPTSW	inactive
RWCYLTEKKFSGLFNL	inactive
TVMPLRMSSISGSAGTSA	inactive
AHFLLCNLA	inactive
IRYALTINYSNTVL	0.457 ± 0.24
WWCLFWVSWN	inactive
RSYLN	inactive
DCPLNNVTSLSHP	inactive
IVFRLANKPRRANRC	inactive
DYIRHSFHCVLILSDKSHFS	inactive
TLGLRADRYKLLYFFEGFLI	inactive
DLQFGVGVTASPAAYCRYLS	inactive
PNHYWFVAQFWLFSLTACHR	0.02 ± 0.77
KFCVVSKTLFNFLTFWFEHG	inactive
WVVKKVPDGRFLFVDCVCGI	inactive
GYQNVSTHRVKALAHRIWVG	inactive

Substance	amyloid nucleation score
QLLFPGLWESATRILCENFM	inactive
TWNMFDGSVRHFSIWFSARS	inactive
HQISFSM	inactive
TITKVNFWEQVRRLLQSGTQ	inactive
RCLEEP	0.145 ± 0.34
TWDWGCKVGFRKGKKV	inactive
MVLNERFFYTSTTGVICVTC	1.73 ± 0.064
SWTGCKYIQKYRCRRWCNNF	inactive
CYFLQ	inactive
FILNRLTRIIWDF	inactive
MEVFFTSTFIGEFNRVCDTY	inactive
CVDVSGLFGNIMEVILVMSW	inactive
PKFYH	inactive
GCHFLH	inactive
REGCHPFELSDPDGDHLVRF	inactive
NLLSDSVDMYINAGVDILLA	inactive
AKAEC	inactive
DMFNLNLFGLLNCLGVMEET	1.31 ± 0.072
RIMWSRRVENVL	inactive
SRRNIPVGGLSNWLPVWSVG	inactive
RRFVFVYINVPC	inactive
LVYREGYIWVMFLIYSFWTV	inactive
LRMFNGSEAIYFMLVQSLFR	inactive

Substance	amyloid nucleation score
FMYMMFERQLPMWDNELLH	-0.251 ± 0.66
RYCNAWLAGKSIFAPFVGTM	inactive
VGYGFIC	inactive
KTLVRNMDNKPCRFSLTSNF	inactive
HFPAGFFSNWFCSIYYKVY	inactive
SYRYFGGSDYRLCGGIWMLA	inactive
DFKDCDICTTPNDKVESGKV	inactive
SLWMFCYSDSYRCKDNFLRN	inactive
GCIMEEKFLRMDFDVVSEYN	inactive
YQESKYIS	inactive
LRYWWLDLTYYL	inactive
LSLCRT	0.001 ± 0.32
PFSFKLPR	inactive
RCVGEACVNGGCLITITYVG	1.16 ± 0.11
LARPHDNSGCCSSNCDLRSC	inactive
RDDGEALVTSARRVQTSYPA	-0.145 ± 0.93
GQSNMFCNWTFANVKRCNL	2.33 ± 0.071
TIPLSFFDHI	inactive
KINLLSCLPVLRYYWISSLA	inactive
SFAWVS	inactive
FPVSMENFKYA	inactive
